In patent EP4772193A1 (Teijin Pharma Limited, dated 2026):

T1: human gpNMB (Human Osteoactivin, His-tag, AcroBioSystems) (human, UniProt Q14956-2 23-486, limits assumed)
T1 sequence (looked up): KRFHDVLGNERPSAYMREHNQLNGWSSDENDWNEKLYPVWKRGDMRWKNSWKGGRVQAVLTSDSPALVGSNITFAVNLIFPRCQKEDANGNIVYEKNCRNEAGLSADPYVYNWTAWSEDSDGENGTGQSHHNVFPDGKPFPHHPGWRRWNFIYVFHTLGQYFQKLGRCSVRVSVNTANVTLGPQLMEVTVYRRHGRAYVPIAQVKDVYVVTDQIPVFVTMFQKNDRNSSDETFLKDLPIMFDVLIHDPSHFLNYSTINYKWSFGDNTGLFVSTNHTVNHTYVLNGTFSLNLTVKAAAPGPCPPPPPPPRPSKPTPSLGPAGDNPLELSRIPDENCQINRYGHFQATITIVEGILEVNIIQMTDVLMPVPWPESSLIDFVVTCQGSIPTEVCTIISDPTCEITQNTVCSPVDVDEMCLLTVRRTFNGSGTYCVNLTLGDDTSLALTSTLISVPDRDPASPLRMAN

T2: recombinant human soluble gpNMB (recombinant human gpNMB-FLAG-His) (human, UniProt Q14956 23-498)
T2 sequence: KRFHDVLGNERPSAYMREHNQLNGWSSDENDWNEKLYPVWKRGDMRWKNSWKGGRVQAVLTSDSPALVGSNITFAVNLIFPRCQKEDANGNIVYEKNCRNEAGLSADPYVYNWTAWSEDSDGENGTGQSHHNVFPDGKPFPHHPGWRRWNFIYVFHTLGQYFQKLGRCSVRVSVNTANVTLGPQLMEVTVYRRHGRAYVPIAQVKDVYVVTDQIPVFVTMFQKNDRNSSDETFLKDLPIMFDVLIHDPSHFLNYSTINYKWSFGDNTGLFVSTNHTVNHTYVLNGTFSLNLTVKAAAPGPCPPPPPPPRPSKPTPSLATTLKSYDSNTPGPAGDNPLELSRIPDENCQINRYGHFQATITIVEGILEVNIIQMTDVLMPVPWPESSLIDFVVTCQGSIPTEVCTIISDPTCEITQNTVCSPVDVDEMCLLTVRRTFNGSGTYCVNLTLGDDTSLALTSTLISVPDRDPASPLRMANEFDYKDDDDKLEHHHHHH


Assays:
[1] = target: T1, human gpNMB (Human Osteoactivin, …); assay: SPR Biacore 8K, antibody captured on protein A, gpNMB as analyte
[2] = target: T2, recombinant human soluble gpNMB …; assay: antigen ELISA
[3] = target: T2, recombinant human soluble gpNMB …; assay: antigen ELISA, vs hGPN06-1_H1L1

Row | Binder | Kd [1] [nM] | koff [1] [s⁻¹] | kon [1] [M⁻¹ s⁻¹] | EC50 [2] [nM] | Relative binding activity [3]
1 | hGPN18-5_H2L1 (antibody, V domains shown, humanized; also called hGPN18-5_VH2+VL1) VH: QVQLVQSGAEVKKPGASVKVSCKASGYTFTTYWMNWVRQAPGQGLEWIGAINPSNDYTEYNQKFKDRATMTADTSTSTVYMELSSLRSEDTAVYYCGRSYSPDYWGQGTTVTVSS VL: DIQMTQSPSSLSASVGDRVTITCKASQNVDNHVAWFQQKPGKAPKALIYSASYRYSGVPSRFSGSGSGTDFTLTISSLQPEDFATYFCQQYKSYPFTFGGGTKLEIK | 661 | 0.00454 | 6870 |  | 
2 | hGPN18-5_H3L2 (antibody, V domains shown, humanized; also called hGPN18-5 VH3+VL2) VH: QVQLVQSGAEVKKPGASVKVSCKASGYTFTTYWMNWVRQAPGQGLEWIGAINPSNDYTEYNQKFKDRAIMTADKSTSTVYMELSSLRSEDTAVYYCGRSYSPDYWGQGTTVTVSS VL: DIQMTQSPSSLSASVGDRVTITCKASQNVDNHVAWFQQKPGKAPKALIYSASYRYSGVPDRFSGSGSGTDFTLTISSLQPEDFATYFCQQYKSYPFTFGGGTKLEIK | 548 | 0.00436 | 7950 |  | 
3 | hGPN18-5_H2L3 (antibody, V domains shown, humanized; also called hGPN18-5_VH2+VL3; GPN18-5-VH2+VL3) VH: QVQLVQSGAEVKKPGASVKVSCKASGYTFTTYWMNWVRQAPGQGLEWIGAINPSNDYTEYNQKFKDRATMTADTSTSTVYMELSSLRSEDTAVYYCGRSYSPDYWGQGTTVTVSS VL: DIQMTQSPSSLSASVGDRVTITCKASQNVDNHVAWHQQKPGKAPKALIYSASYRYSGVPDRFTGSGSGTDFTLTISSLQPEDFADYFCQQYKSYPFTFGGGTKLEIK | 190 | 0.00148 | 7780 |  | 
4 | hGPN06-1_H1L1 VH D31A (antibody, V domains shown) VH: QVQLVQSGAEVKKPGASVKVSCKASGYTFTANWMGWVKQRPGQGLEWIGAIDPSDSFTNYNQNFKGRVTMTVDTSISTAYMELSRLRSDDSAVYFCTRSGYYGSPKLGGDYWGQGTLVTVSS VL: EIVLTQSPSSLSASVGDRVTITCSASSSISYMHWYQQKSGTAPKLLIYSTSNLASGVPSRFSGSGSGTDFTFTISSLQPEDAATYYCHQWNSYPCTFGGGTKLEIK |  |  |  | 0.515 | 1.26
5 | hGPN06-1_H1L1 VH N32A (antibody, V domains shown) VH: QVQLVQSGAEVKKPGASVKVSCKASGYTFTDAWMGWVKQRPGQGLEWIGAIDPSDSFTNYNQNFKGRVTMTVDTSISTAYMELSRLRSDDSAVYFCTRSGYYGSPKLGGDYWGQGTLVTVSS VL: EIVLTQSPSSLSASVGDRVTITCSASSSISYMHWYQQKSGTAPKLLIYSTSNLASGVPSRFSGSGSGTDFTFTISSLQPEDAATYYCHQWNSYPCTFGGGTKLEIK |  |  |  | 7.83 | 0.35
6 | hGPN06-1_H1L1 VH M34A (antibody, V domains shown) VH: QVQLVQSGAEVKKPGASVKVSCKASGYTFTDNWAGWVKQRPGQGLEWIGAIDPSDSFTNYNQNFKGRVTMTVDTSISTAYMELSRLRSDDSAVYFCTRSGYYGSPKLGGDYWGQGTLVTVSS VL: EIVLTQSPSSLSASVGDRVTITCSASSSISYMHWYQQKSGTAPKLLIYSTSNLASGVPSRFSGSGSGTDFTFTISSLQPEDAATYYCHQWNSYPCTFGGGTKLEIK |  |  |  | 3.55 | 1.06
7 | hGPN06-1_H1L1 VH G26A (antibody, V domains shown) VH: QVQLVQSGAEVKKPGASVKVSCKASAYTFTDNWMGWVKQRPGQGLEWIGAIDPSDSFTNYNQNFKGRVTMTVDTSISTAYMELSRLRSDDSAVYFCTRSGYYGSPKLGGDYWGQGTLVTVSS VL: EIVLTQSPSSLSASVGDRVTITCSASSSISYMHWYQQKSGTAPKLLIYSTSNLASGVPSRFSGSGSGTDFTFTISSLQPEDAATYYCHQWNSYPCTFGGGTKLEIK |  |  |  | 1.21 | 1.08
8 | hGPN06-1_H1L1 VH F64A (antibody, V domains shown) VH: QVQLVQSGAEVKKPGASVKVSCKASGYTFTDNWMGWVKQRPGQGLEWIGAIDPSDSFTNYNQNAKGRVTMTVDTSISTAYMELSRLRSDDSAVYFCTRSGYYGSPKLGGDYWGQGTLVTVSS VL: EIVLTQSPSSLSASVGDRVTITCSASSSISYMHWYQQKSGTAPKLLIYSTSNLASGVPSRFSGSGSGTDFTFTISSLQPEDAATYYCHQWNSYPCTFGGGTKLEIK |  |  |  | 0.448 | 1.11
9 | hGPN06-1_H1L1 VH G66A (antibody, V domains shown) VH: QVQLVQSGAEVKKPGASVKVSCKASGYTFTDNWMGWVKQRPGQGLEWIGAIDPSDSFTNYNQNFKARVTMTVDTSISTAYMELSRLRSDDSAVYFCTRSGYYGSPKLGGDYWGQGTLVTVSS VL: EIVLTQSPSSLSASVGDRVTITCSASSSISYMHWYQQKSGTAPKLLIYSTSNLASGVPSRFSGSGSGTDFTFTISSLQPEDAATYYCHQWNSYPCTFGGGTKLEIK |  |  |  | 0.373 | 1.09
10 | hGPN06-1_H1L1 VH K65A (antibody, V domains shown) VH: QVQLVQSGAEVKKPGASVKVSCKASGYTFTDNWMGWVKQRPGQGLEWIGAIDPSDSFTNYNQNFAGRVTMTVDTSISTAYMELSRLRSDDSAVYFCTRSGYYGSPKLGGDYWGQGTLVTVSS VL: EIVLTQSPSSLSASVGDRVTITCSASSSISYMHWYQQKSGTAPKLLIYSTSNLASGVPSRFSGSGSGTDFTFTISSLQPEDAATYYCHQWNSYPCTFGGGTKLEIK |  |  |  | 0.406 | 1.1
11 | hGPN06-1_H1L1 VH N59A (antibody, V domains shown) VH: QVQLVQSGAEVKKPGASVKVSCKASGYTFTDNWMGWVKQRPGQGLEWIGAIDPSDSFTAYNQNFKGRVTMTVDTSISTAYMELSRLRSDDSAVYFCTRSGYYGSPKLGGDYWGQGTLVTVSS VL: EIVLTQSPSSLSASVGDRVTITCSASSSISYMHWYQQKSGTAPKLLIYSTSNLASGVPSRFSGSGSGTDFTFTISSLQPEDAATYYCHQWNSYPCTFGGGTKLEIK |  |  |  | 29.4 | 0.04
12 | hGPN06-1_H1L1 VH G35A (antibody, V domains shown) VH: QVQLVQSGAEVKKPGASVKVSCKASGYTFTDNWMAWVKQRPGQGLEWIGAIDPSDSFTNYNQNFKGRVTMTVDTSISTAYMELSRLRSDDSAVYFCTRSGYYGSPKLGGDYWGQGTLVTVSS VL: EIVLTQSPSSLSASVGDRVTITCSASSSISYMHWYQQKSGTAPKLLIYSTSNLASGVPSRFSGSGSGTDFTFTISSLQPEDAATYYCHQWNSYPCTFGGGTKLEIK |  |  |  | 3.55 | 1.4
13 | hGPN06-1_H1L1 VH N61A (antibody, V domains shown) VH: QVQLVQSGAEVKKPGASVKVSCKASGYTFTDNWMGWVKQRPGQGLEWIGAIDPSDSFTNYAQNFKGRVTMTVDTSISTAYMELSRLRSDDSAVYFCTRSGYYGSPKLGGDYWGQGTLVTVSS VL: EIVLTQSPSSLSASVGDRVTITCSASSSISYMHWYQQKSGTAPKLLIYSTSNLASGVPSRFSGSGSGTDFTFTISSLQPEDAATYYCHQWNSYPCTFGGGTKLEIK |  |  |  | 26.1 | 0.04
14 | hGPN06-1_H1L1 VH F29A (antibody, V domains shown) VH: QVQLVQSGAEVKKPGASVKVSCKASGYTATDNWMGWVKQRPGQGLEWIGAIDPSDSFTNYNQNFKGRVTMTVDTSISTAYMELSRLRSDDSAVYFCTRSGYYGSPKLGGDYWGQGTLVTVSS VL: EIVLTQSPSSLSASVGDRVTITCSASSSISYMHWYQQKSGTAPKLLIYSTSNLASGVPSRFSGSGSGTDFTFTISSLQPEDAATYYCHQWNSYPCTFGGGTKLEIK |  |  |  | 4.8 | 0.54
15 | hGPN06-1_H1L1 VH D52A (antibody, V domains shown) VH: QVQLVQSGAEVKKPGASVKVSCKASGYTFTDNWMGWVKQRPGQGLEWIGAIAPSDSFTNYNQNFKGRVTMTVDTSISTAYMELSRLRSDDSAVYFCTRSGYYGSPKLGGDYWGQGTLVTVSS VL: EIVLTQSPSSLSASVGDRVTITCSASSSISYMHWYQQKSGTAPKLLIYSTSNLASGVPSRFSGSGSGTDFTFTISSLQPEDAATYYCHQWNSYPCTFGGGTKLEIK |  |  |  | 2.79 | 0.51
16 | hGPN06-1_H1L1 VH I51A (antibody, V domains shown) VH: QVQLVQSGAEVKKPGASVKVSCKASGYTFTDNWMGWVKQRPGQGLEWIGAADPSDSFTNYNQNFKGRVTMTVDTSISTAYMELSRLRSDDSAVYFCTRSGYYGSPKLGGDYWGQGTLVTVSS VL: EIVLTQSPSSLSASVGDRVTITCSASSSISYMHWYQQKSGTAPKLLIYSTSNLASGVPSRFSGSGSGTDFTFTISSLQPEDAATYYCHQWNSYPCTFGGGTKLEIK |  |  |  | 0.993 | 0.89
17 | hGPN06-1_H1L1 VH F57A (antibody, V domains shown) VH: QVQLVQSGAEVKKPGASVKVSCKASGYTFTDNWMGWVKQRPGQGLEWIGAIDPSDSATNYNQNFKGRVTMTVDTSISTAYMELSRLRSDDSAVYFCTRSGYYGSPKLGGDYWGQGTLVTVSS VL: EIVLTQSPSSLSASVGDRVTITCSASSSISYMHWYQQKSGTAPKLLIYSTSNLASGVPSRFSGSGSGTDFTFTISSLQPEDAATYYCHQWNSYPCTFGGGTKLEIK |  |  |  | 32.5 | 0.09
